# Reference: patent US6825005B2, “Methods and reagents to regulate apoptosis” (President and Fellows of Harvard College, priority 2000, dated 2004)
# B1: hTid-1L: 43 kDa mitochondrial matrix splice variant encoded by human TID1, SEQ ID NO: 8; proapoptotic (protein, listed as Homo sapiens)
# chain: MAARCSTRWLLVVVGTPRLPAISGRGARPPREGVVGAWLSRKLSVPAFASSLTSCGPRALLTLRPGVSLTGTKHNPFICTASFHTSAPLAKEDYYQILGVPRNASQKEIKKAYYQLAKKYHPDTNKDDPKAKEKFSQLAEAYEVLSDEVKRKQYDAYGSAGFDPGASGSQHSYWKGGPTVDPEELFRKIFGEFSSSSFGDFQTVFDQPQEYFMELTFNQAAKGVNKEFTVNIMDTCERCNGKGNEPGTKVQHCHYCGGSGMETINTGPFVMRSTCRRCGGRGSIIISPCVVCRGAGQAKQKKRVMIPVPAGVEDGQTVRMPVGKREIFITFRVQKSPVFRRDGADIHSDLFISIAQALLGGTARAQGLYETINVTIPPGTQTDQKIRMGGKGIPRINSYGYGDHYIHIKIRVPKRLTSRQQSLILSYAEDETDVEGTVNGVTLTSSGGSTMDSSAGSKARREAGEDEEGFLSKLKKMFTS
# B2: hTid-1S: 40 kDa mitochondrial matrix splice variant encoded by human TID1, SEQ ID NO: 9; antiapoptotic (protein, listed as Homo sapiens)
# chain: MAARCSTRWLLVVVGTPRLPAISGRGARPPREGVVGAWLSRKLSVPAFASSLTSCGPRALLTLRPGVSLTGTKHNPFICTASFHTSAPLAKEDYYQILGVPRNASQKEIKKAYYQLAKKYHPDTNKDDPKAKEKFSQLAEAYEVLSDEVKRKQYDAYGSAGFDPGASGSQHSYWKGGPTVDPEELFRKIFGEFSSSSFGDFQTVFDQPQEYFMELTFNQAAKGVNKEFTVNIMDTCERCNGKGNEPGTKVQHCHYCGGSGMETINTGPFVMRSTCRRCGGRGSIIISPCVVCRGAGQAKQKKRVMIPVPAGVEDGQTVRMPVGKREIFITFRVQKSPVFRRDGADIHSDLFISIAQALLGGTARAQGLYETINVTIPPGTQTDQKIRMGGKGIPRINSYGYGDHYIHIKIRVPKRLTSRQQSLILSYAEDETDVEGTVNGVTLTSSGKRSTGN
# Assays:
# U2OS cells = assay: Apoptosis assay, Hoechst-stained apoptotic nuclei counted in inducible U2OS cells; format: cell-based, human; details: cell line expressing the protein, treated with MMC or TNF-alpha
# Protocol: Cell Lines and Reagents. U20S Cells were Cultured in DMEM Containing 10% Fetal Calf serum supplemented with 50 units/ml penicillin and 50 μg/ml streptomycin. Inducible hTid-1L, hTid-1S, H121QL, and H121QS were expressed in U20S cells from a plasmid containing a muristerone-inducible promoter (Invitrogen). Inducible cells lines were cultured under constant selection with 50 μg/ml Zeocin (Invitrogen) and 300 μg/ml G418. Gene expression was induced with 1 μM muristerone (Invitrogen) for 24 hours. SAOS-2 cells were cultured in DMEM containing 15% fetal calf serum and 50 units/ml penicillin and 50 μg/ml streptomycin.
# Apoptosis Assays. Inducible U2OS Cells were Induced with 1 μM Muristerone for 24 hours, or went uninduced and were treated with either the indicated concentration of mitomycin c (Sigma) for 24 hours or the indicated concentration of TNF plus 30 μg/ml cycloheximide. Cells were fixed by exposure to methanol vapor for 10 minutes followed by immersion in methanol for at least 10 minutes. Cells were stained with 1 μg/ml Hoechst 33258 and 0.1% lowfat milk (Carnation) for 7 minutes and rinsed in water. Apoptotic nuclei were counted by using fluorescence microscopy. For transient-transfection experiments, U2OS cells were transfected by the calcium phosphate technique by using BES-buffered saline. […] Cells expressing green fluorescent protein were counted and scored for apoptotic nuclei.
# caspase 3 = assay: Pro-caspase 3 cleavage and activation, immunoblot and fluorogenic activity assay, U2OS cells treated with TNF; format: cell-based, human; details: inducible U2OS lines, TNF treatment
# Protocol: Caspase Activation and Cytochrome c Release Assays. U2OS Cells were Induced for 24 hours with 1 μM muristerone and treated for the indicated time with 10 ng/ml TNF plus 30 μg/ml cycloheximide. Cells were trypsinized, washed in PBS, and resuspended in lysis buffer (1% NP40/50 mM Tris HCl/150 mM NaCl, pH 8.0/1 μg/ml each aprotinin and leupeptin/0.01% PMSF), and protein concentration was analyzed by using the Bradford method (Bio-Rad). Sixty micrograms of total cell lysate was then analyzed by Western blot analysis using mAb specific for pro-caspase 3 and pro-caspase 8.
# Caspase activity was measured by using fluorescent caspase 8 and caspase 3 activity assays (CLONTECH). Inducible U20S cells were induced with muristerone for 24 hours and treated with 10 ng/ml TNF plus 30 μg/ml cycloheximide for 4.5 hours. Cells were trypsinized, combined with apoptotic cells in the tissue-culture media, counted, and assayed for caspase activity by the manufacturer's protocol on a fluorescent plate reader (excitiation 380 mn, emission 530 nm). For caspase 8 activity, 1×10^6 cells of each line were used, and for caspase 3 activity, 3.5×10^5 cells of each line were used.
# [1] = test system: cytochrome c release from mitochondria; assay: Cytochrome c release assay, immunoblot of cytoplasmic extracts of U2OS cells treated with TNF; format: cell-based, human; details: inducible U2OS lines, TNF treatment
# Protocol: For cytochrome c release assays, U2OS cells were induced with muristerone for 24 hours and treated with 10 ng/ml TNF plus 30 μg/ml cycloheximide for 4.5 hours. Cells were then trypsinized, resuspended in sucrose buffer, homogenized in a Teflon tissue homogenizer, and centrifuged at 10,000×g for 10 minutes as described above. Postmitochondrial supernatant (100 μg of protein) was then analyzed by Western blot analysis for the presence of cytoplasmic cytochrome c. Cytochrome c levels were quantitated by using NIH IMAGE software.
# mtHsp70 = molecular target: T1, mtHsp70 (Homo sapiens, UniProt P38646); assay: Coimmunoprecipitation-immunoblot with mtHsp70; format: binding; details: endogenous proteins, U2OS cells
# T1 construct: immunoprecipitate endogenous hTid-1L and hTid-1S in complex with mtHsp70 from human U2OS cells; endogenous in cells
# T1 sequence (P38646 47-679): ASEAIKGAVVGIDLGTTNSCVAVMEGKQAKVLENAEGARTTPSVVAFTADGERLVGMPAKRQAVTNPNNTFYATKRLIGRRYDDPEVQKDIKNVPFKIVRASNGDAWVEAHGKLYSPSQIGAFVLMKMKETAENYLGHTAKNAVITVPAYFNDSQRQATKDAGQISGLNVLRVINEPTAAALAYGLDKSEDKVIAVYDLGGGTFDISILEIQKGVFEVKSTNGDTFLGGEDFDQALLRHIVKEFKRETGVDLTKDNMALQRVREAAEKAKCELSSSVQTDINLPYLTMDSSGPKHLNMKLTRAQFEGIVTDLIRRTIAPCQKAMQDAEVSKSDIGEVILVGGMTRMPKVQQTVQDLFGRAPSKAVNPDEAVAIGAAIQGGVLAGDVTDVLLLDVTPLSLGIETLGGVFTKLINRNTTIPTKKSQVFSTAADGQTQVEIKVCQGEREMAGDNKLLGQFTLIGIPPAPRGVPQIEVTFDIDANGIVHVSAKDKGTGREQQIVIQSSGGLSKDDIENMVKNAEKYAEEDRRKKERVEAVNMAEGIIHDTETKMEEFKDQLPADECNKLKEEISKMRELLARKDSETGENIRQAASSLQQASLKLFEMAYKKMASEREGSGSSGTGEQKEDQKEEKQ
# Protocol: Immunoprecipitation. One 10-cm Plate of SAOS-2 Cells was Trypsinized, Washed in PBS, and lysed in 1% NP40/150 mM NaCl/50 mM Tris HCl, pH 8.0/1 μg/ml each aprotinin and leupeptin/0.01% PMSF on ice. The sample was split into four fractions and incubated for 1 hour with either anti-hTid-1, anti-mtHsp70, or anti-Hsc70 mAbs. Immune complexes were collected on protein G agarose beads (GIBCO) and washed three times in 0.1% NP40 lysis buffer. Samples were then separated by SDS/PAGE, transferred to poly(vinylidene difluoride) membrane, and probed with either anti-mtHsp70, anti-Hsc70, or anti-hTid-1 mAbs. Proteins were visualized by ECL (Amersham Pharmacia) by using x-ray film.
Molecule,Levels of apoptosis relative to control cells (U2OS cells),Cleavage and activation of pro-caspase 3 relative to control cells (caspase 3),Cytochrome c released from mitochondria relative to control cells [1],Interaction with mtHsp70 (coimmunoprecipitation) (mtHsp70)
B1,markedly increased levels of apoptosis,more efficiently,more cytochrome c is released,interact specifically
B2,decreased levels of apoptosis,decreased cleavage and activation,release less cytochrome c,interact specifically
